The text below walks through data of the supplement of paper PMC6757056.

The labels stand for the following.
B1: library; a variant is named by its letters at N, in order (parent)
chain: GCUGUCACCGGUGCUUGGUACGUUAUAUUCAGCCGGUCUGAUGAGUCUNNNNNNAGACGAAACAGC

± gives the standard deviation of the averaged measurements.

The variants in data set [1] derive from B1. Put plainly: normalized RNA/DNA level without ligand (relative to sTRSVctl = 100) (log10 (% of sTRSVctl)); HEK293T overexpressing SLC46A1; higher = less ribozyme self-cleavage, higher mRNA level. Particulars: without (6R,S)-folinic acid; ligand present: no. The procedure, abridged: (§1)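 Ribozyme switch library plasmids with mCherry reporters (eGFP in certain ligand experiments) went into HEK293T cells at 4 µg per 6-well well. Where ligand was used, it was applied 1 h before transfection, and total RNA was extracted with EDTA 72 h later for reverse transcription, amplification, barcoding and sequencing. RNA level is the RNA-to-DNA read ratio normalized to a spiked-in non-cleaving sequence or to the leading sequences, then scaled and log-transformed. Scaling was ×100 with log10, the leading set comprised 25 sequences, and the cutoff was ≥100 DNA reads.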

In data set [2] the parent is B1. Put plainly: normalized RNA/DNA level with ligand (relative to sTRSVctl = 100) (log10 (% of sTRSVctl)); HEK293T overexpressing SLC46A1; ligand concentration (+) RNA-Seq: 6 mM; higher = less ribozyme self-cleavage, higher mRNA level. The conditions noted are these: with (6R,S)-folinic acid; ligand present: yes. The procedure, abridged:
as §1

On to GCUGUCACCGGUGCUUGGUACGUUAUAUUCAGCCGGUCUGAUGAGUCUGCCGUUAGACGAAACAGC [GCCGUU], for which the “normalized RNA/DNA level without ligand (log10)” value in data set [1] is 2.067 ± 0.017. For the same variant, the “normalized RNA/DNA level with ligand (log10)” value in data set [2] is 2.04 ± 0.006.

For the variant GCUGUCACCGGUGCUUGGUACGUUAUAUUCAGCCGGUCUGAUGAGUCUGCCGUGAGACGAAACAGC [GCCGUG], in data set [1], the “normalized RNA/DNA level without ligand (log10)” value was 1.994 ± 0.012. The “normalized RNA/DNA level with ligand (log10)” value in data set [2] came to 2.033 ± 0.018.

On to GCUGUCACCGGUGCUUGGUACGUUAUAUUCAGCCGGUCUGAUGAGUCUGCCGUCAGACGAAACAGC [GCCGUC], for which the “normalized RNA/DNA level without ligand (log10)” value in data set [1] came to 2.08 ± 0.031. Further, the “normalized RNA/DNA level with ligand (log10)” value in data set [2] turned out to be 2.081 ± 0.0053.

For GCUGUCACCGGUGCUUGGUACGUUAUAUUCAGCCGGUCUGAUGAGUCUUCCUAAAGACGAAACAGC [UCCUAA], the “normalized RNA/DNA level without ligand (log10)” value in data set [1] stood at 1.981 ± 0.0064. Also, in data set [2], the “normalized RNA/DNA level with ligand (log10)” value is 2.018 ± 0.014.

As for GCUGUCACCGGUGCUUGGUACGUUAUAUUCAGCCGGUCUGAUGAGUCUUCCUACAGACGAAACAGC [UCCUAC], the “normalized RNA/DNA level without ligand (log10)” value in data set [1] was 2.024 ± 0.015. Further, the “normalized RNA/DNA level with ligand (log10)” value in data set [2] was 2.05 ± 0.026.

For the variant GCUGUCACCGGUGCUUGGUACGUUAUAUUCAGCCGGUCUGAUGAGUCUACCGUAAGACGAAACAGC [ACCGUA], the “normalized RNA/DNA level without ligand (log10)” value in data set [1] was 1.969 ± 0.0072. Also, the “normalized RNA/DNA level with ligand (log10)” value in data set [2] came to 2.01 ± 0.048.

Take GCUGUCACCGGUGCUUGGUACGUUAUAUUCAGCCGGUCUGAUGAGUCUACCGUGAGACGAAACAGC [ACCGUG]: the “normalized RNA/DNA level without ligand (log10)” value in data set [1] was 1.92 ± 0.02. Besides, the “normalized RNA/DNA level with ligand (log10)” value in data set [2] was 2.007 ± 0.015.

Turning to GCUGUCACCGGUGCUUGGUACGUUAUAUUCAGCCGGUCUGAUGAGUCUACCGUCAGACGAAACAGC [ACCGUC], in data set [1], the “normalized RNA/DNA level without ligand (log10)” value amounted to 2.1 ± 0.03. Besides, the “normalized RNA/DNA level with ligand (log10)” value in data set [2] turned out to be 2.07 ± 0.037.

Consider GCUGUCACCGGUGCUUGGUACGUUAUAUUCAGCCGGUCUGAUGAGUCUGCCUAGAGACGAAACAGC [GCCUAG], for which the “normalized RNA/DNA level without ligand (log10)” value in data set [1] was 1.98 ± 0.023. Also, the “normalized RNA/DNA level with ligand (log10)” value in data set [2] worked out at 2.05 ± 0.032.

As to GCUGUCACCGGUGCUUGGUACGUUAUAUUCAGCCGGUCUGAUGAGUCUGCCUACAGACGAAACAGC [GCCUAC], in data set [1], the “normalized RNA/DNA level without ligand (log10)” value amounted to 2.056 ± 0.0034. Also, the “normalized RNA/DNA level with ligand (log10)” value in data set [2] was found to be 2.086 ± 0.0065.

Consider GCUGUCACCGGUGCUUGGUACGUUAUAUUCAGCCGGUCUGAUGAGUCUGCCUAAAGACGAAACAGC [GCCUAA], for which the “normalized RNA/DNA level without ligand (log10)” value in data set [1] turned out to be 2.006 ± 0.019. In data set [2], the “normalized RNA/DNA level with ligand (log10)” value stood at 2.022 ± 0.012.

For the variant GCUGUCACCGGUGCUUGGUACGUUAUAUUCAGCCGGUCUGAUGAGUCUUCCGUCAGACGAAACAGC [UCCGUC], the “normalized RNA/DNA level without ligand (log10)” value in data set [1] was found to be 2.1142 ± 0.002. For the same variant, in data set [2], the “normalized RNA/DNA level with ligand (log10)” value came to 2.0759 ± 0.0012.

For the variant GCUGUCACCGGUGCUUGGUACGUUAUAUUCAGCCGGUCUGAUGAGUCUUCCGUUAGACGAAACAGC [UCCGUU], in data set [1], the “normalized RNA/DNA level without ligand (log10)” value amounted to 2.049 ± 0.0025. For the same variant, the “normalized RNA/DNA level with ligand (log10)” value in data set [2] was determined as 2.05 ± 0.068.

On to GCUGUCACCGGUGCUUGGUACGUUAUAUUCAGCCGGUCUGAUGAGUCUCCCUACAGACGAAACAGC [CCCUAC], for which the “normalized RNA/DNA level without ligand (log10)” value in data set [1] was 2.07 ± 0.025. Besides, the “normalized RNA/DNA level with ligand (log10)” value in data set [2] came out at 2.085 ± 0.019.

Take GCUGUCACCGGUGCUUGGUACGUUAUAUUCAGCCGGUCUGAUGAGUCUCCCUAGAGACGAAACAGC [CCCUAG]: the “normalized RNA/DNA level without ligand (log10)” value in data set [1] came to 2.018 ± 0.004. Also, in data set [2], the “normalized RNA/DNA level with ligand (log10)” value was 2.045 ± 0.0096.

For the variant GCUGUCACCGGUGCUUGGUACGUUAUAUUCAGCCGGUCUGAUGAGUCUCCCUAAAGACGAAACAGC [CCCUAA], the “normalized RNA/DNA level without ligand (log10)” value in data set [1] was determined as 2.0445 ± 0.00066. Further, the “normalized RNA/DNA level with ligand (log10)” value in data set [2] worked out at 2.039 ± 0.015.

Consider GCUGUCACCGGUGCUUGGUACGUUAUAUUCAGCCGGUCUGAUGAGUCUCCCGUCAGACGAAACAGC [CCCGUC], for which, in data set [1], the “normalized RNA/DNA level without ligand (log10)” value worked out at 2.05 ± 0.056. Moreover, the “normalized RNA/DNA level with ligand (log10)” value in data set [2] was determined as 2.03 ± 0.065.

As to GCUGUCACCGGUGCUUGGUACGUUAUAUUCAGCCGGUCUGAUGAGUCUCCCGUGAGACGAAACAGC [CCCGUG], the “normalized RNA/DNA level without ligand (log10)” value in data set [1] amounted to 2.018 ± 0.016. Also, the “normalized RNA/DNA level with ligand (log10)” value in data set [2] worked out at 2.012 ± 0.014.

Regarding GCUGUCACCGGUGCUUGGUACGUUAUAUUCAGCCGGUCUGAUGAGUCUCCCGUUAGACGAAACAGC [CCCGUU], the “normalized RNA/DNA level without ligand (log10)” value in data set [1] turned out to be 2.057 ± 0.011. Besides, the “normalized RNA/DNA level with ligand (log10)” value in data set [2] was 2.04 ± 0.023.

GCUGUCACCGGUGCUUGGUACGUUAUAUUCAGCCGGUCUGAUGAGUCUACCUACAGACGAAACAGC [ACCUAC]: the “normalized RNA/DNA level without ligand (log10)” value in data set [1] came out at 2.0248 ± 0.0018. Besides, in data set [2], the “normalized RNA/DNA level with ligand (log10)” value came out at 2.02 ± 0.028.

For the variant GCUGUCACCGGUGCUUGGUACGUUAUAUUCAGCCGGUCUGAUGAGUCUACCUAAAGACGAAACAGC [ACCUAA], in data set [1], the “normalized RNA/DNA level without ligand (log10)” value stood at 2.021 ± 0.013. In addition, the “normalized RNA/DNA level with ligand (log10)” value in data set [2] is 1.994 ± 0.018.
